Assay results published in paper PMC8710476 (Frontiers in Immunology, 2021).

Molecular target: T1, SARS-CoV-2 full-length spike, WT D614G, expressed on the cell surface (SARS-CoV-2, wild type with D614G, UniProt A0A6H1PJZ3, D614G)
T1 construct: also called wild-type spike
Assay: flow cytometry on cells
Settings: one partner purified

B1: REGN10987 (class III) (antibody, V domains shown)
VH: QVQLVESGGGVVQPGRSLRLSCAASGFTFSNYAMYWVRQAPGKGLEWVAVISYDGSNKYYADSVKGRFTISRDNSKNTLYLQMNSLRTEDTAVYYCASGSDYGDYLLVYWGQGTLVTVSS
VL: QSALTQPASVSGSPGQSITISCTGTSSDVGGYNYVSWYQQHPGKAPKLMIYDVSKRPSGVSNRFSGSKSGNTASLTISGLQSEDEADYYCNSLTSISTWVFGGGTKLTVL
  binding result: binds
